Source: PMC7666168

Target: ΔN−3 gp17.1 (bacteriophage SPP1) (UniProt O48449)
Test: cryo-EM structure; helical reconstruction of polymerized ΔN−3 gp17.1 tubes, 20 mM Tris-HCl pH 7.4 in place of phosphate; the most straight tubes selected; C6, rise 38.46 Å, twist 21.89°; atomic model by hybrid calculation (ISD) with solid-state NMR restraints from gp17.1 tubes

stoichiometry N: 6
Substance: ΔN−3 gp17.1 (from UniProt O48449 1-264) (natural protein)
